Series [1] addresses HIV-1 integrase (full length wild type) (HIV-1). Briefly: cross-linking + other: High-Mass MALDI ToF mass spectrometry; purified IN/LEDGF/INI1-IBD complex (formed by dialysis, affinity chromatography and gel filtration) chemically cross-linked before mass spectrometry; linear mode. In general terms: In gel filtration, larger molecules generally elute earlier.
The target is the same in series [2].
For series [3], the target named is T1, HIV-1 integrase (IN);LEDGF/p75 (HIV-1;human?, UniProt P04585;O75475 1148-1435;1-530, |). Briefly: competition (fluorescence anisotropy); excess over N1; 5 mM Mg2+. The following applies: protein: recombinant;recombinant; tags: GST tag on the IN/LEDGF complex cleaved by P3C protease; chain copies: 4;2; blunt. (In fluorescence polarisation assays a small probe gives low polarisation when free and higher when bound to something large.)

The target of series [4] is T2, HIV-1 integrase (IN);LEDGF/p75;INI1-IBD (HIV-1;human?;human?, UniProt P04585;O75475;Q12824 1148-1435;1-530;174-289, ||). The series is described as above. The settings on record: protein: recombinant;recombinant;recombinant; tags: GST tag on the IN/LEDGF complex cleaved by P3C protease; chain copies: 4;2;2; blunt.
The target in series [5] is T1, HIV-1 integrase (IN);LEDGF/p75. Briefly: fluorescence anisotropy; 5 mM Mg2+; 2 DNA duplexes per complex assumed. The following applies: protein: recombinant;recombinant; tags: GST tag on the IN/LEDGF complex cleaved by P3C protease; chain copies: 4;2; label: 5'-6FAM on strand 1; blunt.
In series [6] the target is T2, HIV-1 integrase (IN);LEDGF/p75;INI1-IBD. The series is described as above. The settings on record: protein: recombinant;recombinant;recombinant; tags: GST tag on the IN/LEDGF complex cleaved by P3C protease; chain copies: 4;2;2; label: 5'-6FAM on strand 1; blunt.

A word on the stoichiometry N: it is a count of units in the complex or per binding partner. A word on the Kd: it is the free concentration of one partner at which half of the binding sites on the other are occupied at equilibrium, for simple one-to-one binding.

Turning to “HIV-1 integrase (full length wild type) (enzyme)”, the stoichiometry N in series [1] was determined as 2.

In series [2], “Lens Epithelium-Derived Growth Factor LEDGF/p75 (full length wild type) (from UniProt O75475 1-530) (natural protein)” gave a circular full site integration products counted by cloning in bacteria, IN/LEDGF complex against isolated IN, 0.1 to 12.5 µM in IN monomers of 2 to 10 times.

B1: non-specific DNA 49 bp, unlabeled competitor (dsDNA)
DNA 1: AGTTAAGTGCTGAATTATGATAGTAATCAATATCTACTCCTAACCTCTT
DNA 2: AAGAGGTTAGGAGTAGATATTGATTACTATCATAATTCAGCACTTAACT
With B1, the binding result in series [3] and in series [4] was “no binding” each time.

B2: U5 vDNA 40 bp, 6FAM (dsDNA)
DNA 1: GACTACGGTTCAAGTCAGCGTGTGGAAAATCTCTAGCAGT
DNA 2: ACTGCTAGAGATTTTCCACACGCTGACTTGAACCGTAGTC
Regarding B2, the dissociation constant (Kd) in series [5] turned out to be 10.6 ± 0.5 nM; in series [6] it was 35 ± 4 nM.

Values taken from paper PMC3623958, “Structural and Functional Role of INI1 and LEDGF in the HIV-1 Preintegration Complex”.
